Drawing on article PMC11649927, this text covers stoichiometry N for five substances.

What all share (test): cryo-EM structure; single-particle cryo-EM of S trimers in situ on PFA-fixed, concentrated virions; C3 symmetry for the 3-closed-RBD maps, focused classification for 1-open-RBD trimers
The target in experiment [1] is SARS-CoV-2 spike (S) protein of the Delta variant (B.1.617.2), on virions (SARS-CoV-2).
Experiment [2] has as its target SARS-CoV-2 spike (S) protein of the Gamma variant (P.1), on virions (SARS-CoV-2).
For experiment [3], the target named is SARS-CoV-2 spike (S) protein of the Alpha variant (B.1.1.7), on virions (SARS-CoV-2).
The target in experiment [4] is SARS-CoV-2 spike (S) protein of the Mu variant (B.1.621), on virions (SARS-CoV-2).
For experiment [5], the target named is SARS-CoV-2 spike (S) protein of the B.1 variant (B.1.238), on virions (SARS-CoV-2).

For “SARS-CoV-2 spike (S) protein of the Delta variant (B.1.617.2), on virions (natural protein)”, the stoichiometry N (as a rule, a count of units in the complex or per binding partner) in experiment [1] was 3.
In the case of “SARS-CoV-2 spike (S) protein of the Gamma variant (P.1), on virions (natural protein)”, the stoichiometry N in experiment [2] was determined as 3.
In experiment [3], “SARS-CoV-2 spike (S) protein of the Alpha variant (B.1.1.7), on virions (natural protein)” showed a stoichiometry N of 3.
Take “SARS-CoV-2 spike (S) protein of the Mu variant (B.1.621), on virions (natural protein)”: the stoichiometry N in experiment [4] worked out at 3.
Take “SARS-CoV-2 spike (S) protein of the B.1 variant (B.1.238), on virions (natural protein)”: the stoichiometry N in experiment [5] was 3.
